In patent publication US20240269235A1 (Gilead, published 2024):
Positions count from the first letter of the chain named.

T1: human IL-2Rα on Treg cells (CD3+, CD4+, CD25hi, FoxP3+) of human PBMC (human, UniProt P01589 22-272)
T1 sequence (looked up): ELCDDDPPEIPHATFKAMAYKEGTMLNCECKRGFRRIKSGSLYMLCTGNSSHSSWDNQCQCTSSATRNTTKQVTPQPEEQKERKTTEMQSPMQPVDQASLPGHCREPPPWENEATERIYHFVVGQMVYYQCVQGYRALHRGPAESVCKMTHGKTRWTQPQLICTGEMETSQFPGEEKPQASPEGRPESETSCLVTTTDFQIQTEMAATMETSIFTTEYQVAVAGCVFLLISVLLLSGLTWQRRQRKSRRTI

T2: trimeric murine IL-2 receptor (IL-2Rα, IL-2Rβ, and IL-2Rγ) on CTLL-2 cells (murine, UniProt P01590 22-268; P16297 27-539; P34902 23-369)
T2 sequence (looked up) 1: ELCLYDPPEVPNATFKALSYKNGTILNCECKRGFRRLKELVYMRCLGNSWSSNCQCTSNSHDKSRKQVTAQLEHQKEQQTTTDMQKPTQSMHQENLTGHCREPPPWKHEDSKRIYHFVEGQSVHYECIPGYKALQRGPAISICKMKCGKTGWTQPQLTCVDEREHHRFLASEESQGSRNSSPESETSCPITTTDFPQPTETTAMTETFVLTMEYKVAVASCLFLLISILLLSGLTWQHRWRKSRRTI
T2 sequence (looked up) 2: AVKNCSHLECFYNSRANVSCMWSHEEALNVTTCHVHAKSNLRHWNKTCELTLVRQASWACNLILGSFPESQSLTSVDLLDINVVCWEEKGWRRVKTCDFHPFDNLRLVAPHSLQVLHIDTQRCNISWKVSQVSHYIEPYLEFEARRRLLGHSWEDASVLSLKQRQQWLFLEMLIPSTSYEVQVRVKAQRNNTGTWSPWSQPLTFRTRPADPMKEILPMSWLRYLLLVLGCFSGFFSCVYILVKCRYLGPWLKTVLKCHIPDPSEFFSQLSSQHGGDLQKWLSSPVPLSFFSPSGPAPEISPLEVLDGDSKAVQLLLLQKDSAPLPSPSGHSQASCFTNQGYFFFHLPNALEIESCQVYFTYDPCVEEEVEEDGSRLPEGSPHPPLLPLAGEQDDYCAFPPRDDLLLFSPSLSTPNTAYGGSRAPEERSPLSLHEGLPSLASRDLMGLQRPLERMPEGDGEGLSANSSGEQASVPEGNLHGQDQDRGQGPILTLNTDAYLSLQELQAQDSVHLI
T2 sequence (looked up) 3: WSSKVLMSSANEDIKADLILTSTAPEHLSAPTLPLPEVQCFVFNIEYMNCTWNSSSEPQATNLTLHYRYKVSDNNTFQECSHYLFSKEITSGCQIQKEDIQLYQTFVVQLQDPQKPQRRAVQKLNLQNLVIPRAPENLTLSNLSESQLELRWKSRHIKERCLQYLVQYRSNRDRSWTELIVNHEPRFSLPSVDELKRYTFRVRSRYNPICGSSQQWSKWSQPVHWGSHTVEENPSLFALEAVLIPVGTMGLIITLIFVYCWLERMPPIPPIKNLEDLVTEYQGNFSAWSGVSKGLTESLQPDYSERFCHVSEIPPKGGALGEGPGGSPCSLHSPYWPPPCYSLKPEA

T3: IL-2Rβ (recombinant IL-2 receptor β, R&D Systems Cat #:224-2B-025/CF), biotinylated (UniProt P14784 27-239, limits assumed, biotinylated using sulfo-NHS-LC-LC-Biotin)
T3 construct: Bought reagent; also called IL-2RB; CD122
T3 sequence (looked up): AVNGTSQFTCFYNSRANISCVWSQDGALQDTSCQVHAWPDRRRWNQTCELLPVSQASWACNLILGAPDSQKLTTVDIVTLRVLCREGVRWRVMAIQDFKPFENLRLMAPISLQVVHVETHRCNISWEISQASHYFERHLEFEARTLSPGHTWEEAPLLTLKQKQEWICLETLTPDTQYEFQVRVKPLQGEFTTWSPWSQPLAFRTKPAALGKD

T4: IL-2Rα (recombinant IL-2 receptor α, R&D Systems Cat #: 223-2A/CF), biotinylated (human, UniProt P01589 22-213, limits assumed, biotinylated using sulfo-NHS-LC-LC-Biotin)
T4 construct: Bought reagent; also used here as the IL-2Rα partner of the in-silico analysis of PDB 2B5I (another construct); also called IL-2RA; CD25
T4 sequence (looked up): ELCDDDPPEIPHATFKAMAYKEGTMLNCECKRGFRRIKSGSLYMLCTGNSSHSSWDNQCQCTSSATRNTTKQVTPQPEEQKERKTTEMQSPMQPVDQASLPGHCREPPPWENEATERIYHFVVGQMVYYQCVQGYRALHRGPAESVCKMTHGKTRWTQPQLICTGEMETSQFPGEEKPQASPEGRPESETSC

B1: Fc-IL-2v heterodimer 81.46 (hIL-2v_Δ1-5_R38G_C125S) (Fc fusion)
chain 1: ESKYGPPCPPCPAPEAAGGPSVFLFPPKPKDTLMISRTPEVTCVVVDVSQEDPEVQFNWYVDGVEVHNAKTKPREEQFNSTYRVVSVLTVLHQDWLNGKEYKCKVSNKGLPSSIEKTISKAKGQPREPQVYTLPPSQEEMTKNQVSLWCLVKGFYPSDIAVEWESNGQPENNYKTTPPVLDSDGSFFLYSRLTVDKSRWQEGNVFSCSVMHEALHNHYTQKSLSLSLGGGGGSGGGGSGGGGSGGGGSSTKKTQLQLEHLLLDLQMILNGINNYKNPKLTGMLTFKFYMPKKATELKHLQCLEEELKPLEEVLNLAQSKNFHLRPRDLISNINVIVLELKGSETTFMCEYADETATIVEFLNRWITFSQSIISTLT
chain 2: ESKYGPPCPPCPAPEAAGGPSVFLFPPKPKDTLMISRTPEVTCVVVDVSQEDPEVQFNWYVDGVEVHNAKTKPREEQFNSTYRVVSVLTVLHQDWLNGKEYKCKVSNKGLPSSIEKTISKAKGQPREPQVYTLPPSQEEMTKNQVSLSCAVKGFYPSDIAVEWESNGQPENNYKTTPPVLDSDGSFFLVSRLTVDKSRWQEGNVFSCSVMHEALHNRFTQKSLSLSLGK
notes: hIgG4 knob-in-hole Fc heterodimer, one IL-2v on the knob chain
B2: Fc-IL-2v heterodimer 83.46 (hIL-2v_Δ1-5_T41G_C125S) (Fc fusion)
chain 1: B1 chain 1 with G281R, T284G
chain 2: B1 chain 2
notes: as for B1
B3: Fc-IL-2v heterodimer 86.46 (hIL-2v_Δ1-5_F42A_C125S) (Fc fusion)
chain 1: B1 chain 1 with G281R, F285A
chain 2: B1 chain 2
notes: as for B1
B4: Fc-IL-2v heterodimer 90.46 (hIL-2v_Δ1-5_E62A_C125S) (Fc fusion)
chain 1: B1 chain 1 with G281R, E305A
chain 2: B1 chain 2
notes: as for B1
B5: Fc-IL-2v heterodimer 87.46 (hIL-2v_Δ1-5_Y45G_C125S) (Fc fusion)
chain 1: B1 chain 1 with G281R, Y288G
chain 2: B1 chain 2
notes: as for B1
B6: Fc-IL-2v heterodimer 89.46 (hIL-2v_Δ1-5_E61A_C125S) (Fc fusion)
chain 1: B1 chain 1 with G281R, E304A
chain 2: B1 chain 2
notes: as for B1
B7: mouse surrogate Fc-IL-2v heterodimer 169.250 (IL2v_F56A_Y59G_E76A_C140A) (Fc fusion)
chain 1: GPTIKPCPPCKCPAPNAAGGPSVFIFPPKIKDVLMISLSPIVTCVVVDVSEDDPDVQISWFVNNVEVHTAQTQTHREDYNSTLRVVSALPIQHQDWMSGKEFKCKVNNKDLGAPIERTISKPKGSVRAPQVYVLPPPEEEMTKKQVTLWCMVTDFMPEDIYVEWTNNGKTELNYKNTEPVLDSDGSYFMYSKLRVEKKNWVERNSYSCSVVHEGLHNHHTTKSFSRTPGGGGGSGGGGSGGGGSGGGGSQQQHLEQLLMDLQELLSRMENYRNLKLPRMLTAKFGLPKQATELKDLQCLEDALGPLRHVLDLTQSKSFQLEDAENFISNIRVTVVKLKGSDNTFECQFDDESATVVDFLRRWIAFAQSIISTSPQ
chain 2: GPTIKPCPPCKCPAPNAAGGPSVFIFPPKIKDVLMISLSPIVTCVVVDVSEDDPDVQISWFVNNVEVHTAQTQTHREDYNSTLRVVSALPIQHQDWMSGKEFKCKVNNKDLGAPIERTISKPKGSVRAPQVYVLPPPEEEMTKKQVTLSCAVTDFMPEDIYVEWTNNGKTELNYKNTEPVLDSDGSYFMVSKLRVEKKNWVERNSYSCSVVHEGLHNHHTTKSFSRTPGK
B8: mouse surrogate Fc-IL-2v heterodimer 170.250 (IL2v_R52G_E76A_C140A) (Fc fusion)
chain 1: B7 chain 1 with R278G, A282F, G285Y
chain 2: B7 chain 2

biological target: T1, human IL-2Rα on Treg cells (CD3+, CD4+, …); assay: cell-based or functional assay

Row | Binder | Treg EC50, STAT5 activation (PBMC STAT5 assay) [nM]
1 | B1 | 0.07
2 | B2 | < 0.001
3 | B3 | 0.3
4 | B4 | 0.08
5 | B5 | 0.03
6 | B6 | 0.04

biological target: T2, trimeric murine IL-2 receptor (IL-2Rα, …); assay: cell-based or functional assay

Row | Binder | STAT5 activation of CTLL-2 cells, EC50 [nM]
7 | B1 | 0.02
8 | B2 | 0.04
9 | B3 | 1
10 | B4 | 2
11 | B5 | 0.2
12 | B6 | 0.02

biological target: T2, trimeric murine IL-2 receptor (IL-2Rα, …); assay: cell-based or functional assay; remark: another data set of the same source

Row | Binder | pSTAT5 EC50, STAT5 activation of CTLL-2 cells [nM]
13 | B7 | 51.4
14 | B8 | 9.6

biological target: T5, IL-2Rβγ heterodimer, custom biotinylated Fc fusion protein (human IL-2Rβ 27-240-Fc-FLAG / human IL-2Rγ … (human, site-specific biotinylation at the AviTag)); assay: SPR (Biacore), C1 or CM5 chip, biotinylated receptor on neutravidin
T5 construct: Extracellular regions fused to IgG1 knob-in-hole Fc subunits with tags; also called IL-2 receptor βγ heterodimer; Fc-IL-2Rβγ
From the text: (§1) Data for binding of Fc-IL-2 variant fusion proteins to IL-2Rα, IL-2Rβ and IL-2Rβγ heterodimer were collected on a Biacore platform using either C1 or CM5 chips. Neutravidin was immobilized using standard amine coupling methods and used to capture biotinylated receptors. Commercially sourced IL-2Rα (R&D Systems Cat #: 223-2A/CF) and IL-2Rβ receptors (R&D Systems Cat #:224-2B-025/CF) were biotinylated using sulfo-NHS-LC-LC-Biotin, desalted, and then captured on the neutravidin surfaces. […] Distinct purification tags were appended to the C-terminus of each chain. A FLAG epitope tag ([…]; SEQ ID NO: 257) was added at the C-terminus of IL-2Rβ subunit, followed by C-terminal Hiss tag ([…]; SEQ ID NO: 258). An AviTag™ ([…]; SEQ ID NO: 259) motif on the IL-2Rγ subunit allowed for site-specific biotinylation of the heterodimer.
(§2) Fc IL 2 fusion protein variants, Fc protein, and Proleukin were injected at various concentrations over these surfaces. Kinetic data obtained from these injections was used to extract kₒₙ and koff to calculate KD (KD=koff/kₒₙ). Experiments were run at 25° C. in HBS-EP+ running buffer (10 mM HEPES, 150 mM NaCl, 3 mM EDTA, 0.05% Tween20, pH 7.4 with 0.1 mg/ml BSA). Data shown in Table 5 for Fc IL-2 fusion protein variants binding to the indicated IL-2R surfaces were derived from the global fitting of data obtained from 2-5 independent surfaces.

T5 sequence (chain, as listed by the source limits assumed): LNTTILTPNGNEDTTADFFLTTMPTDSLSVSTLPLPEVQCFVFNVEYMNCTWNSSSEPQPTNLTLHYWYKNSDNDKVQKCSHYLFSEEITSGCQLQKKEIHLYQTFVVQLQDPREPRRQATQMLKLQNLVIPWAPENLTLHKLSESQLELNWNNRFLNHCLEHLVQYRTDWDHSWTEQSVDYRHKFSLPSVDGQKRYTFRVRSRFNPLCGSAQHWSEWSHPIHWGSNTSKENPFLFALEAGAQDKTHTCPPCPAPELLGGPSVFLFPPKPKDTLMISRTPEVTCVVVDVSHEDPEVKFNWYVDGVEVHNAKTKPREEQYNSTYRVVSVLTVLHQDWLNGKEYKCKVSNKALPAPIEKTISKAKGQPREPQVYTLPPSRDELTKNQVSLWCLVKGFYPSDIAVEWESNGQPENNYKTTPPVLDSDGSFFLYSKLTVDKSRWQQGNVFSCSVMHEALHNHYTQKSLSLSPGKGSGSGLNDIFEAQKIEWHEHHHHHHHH

Row | Binder | Kd [nM]
15 | B1 | 0.071
16 | B2 | 0.15
17 | B3 | 0.094
18 | B4 | 0.152
19 | B5 | 0.016
20 | B6 | 0.065

biological target: T3, IL-2Rβ (recombinant IL-2 receptor β, …); assay: as above
From the text: as §1, §2

Row | Binder | Kd [µM]
21 | B1 | 7
22 | B2 | 7.3
23 | B3 | 7.1
24 | B4 | 8.1
25 | B5 | 7
26 | B6 | 8.8

biological target: T4, IL-2Rα (recombinant IL-2 receptor α, …); assay: as above
From the text: as §1, §2

Row | Binder | Kd [nM] | fold larger effect on reducing IL-2Rα affinity against R38A (heterodimer 82.46) [fold]
27 | B1 | 685 | 6
28 | B2 | 29 | –
29 | B3 | 2000 | –
30 | B4 | 2400 | –
31 | B5 | 269 | –
32 | B6 | 419 | –
